Measured values published in patent US20180265558A1.

Biological target: FGFR-1c expressed on BaF3 cells
Experiment: cell-based or functional assay

mitogenic potency on BaF3 cells expressing FGFR-1c, relative to wild-type FGF-1 (fold against wild-type FGF-1): 10
Substance: modified FGF-1 (S116R mutant protein) (from UniProt P05230 16-155) (ligand)
